Test results reported in publication PMC9429925, “Tight Complex Formation of the Fumarate Sensing DcuS-DcuR Two-Component System at the Membrane and Target Promoter Search by Free DcuR Diffusion” (mSphere, 2022).

B1: phosphorylated PASC-Kin (PASC-Kin-P) (domain or fragment, E. coli, UniProt P0AEC8 212-539, looked up)
chain: LEPYEISTLFEQRQAMLQSIKEGVVAVDDRGEVTLINDAAQELLNYRKSQDDEKLSTLSHSWSQVVDVSEVLRDGTPRRDEEITIKDRLLLINTVPVRSNGVIIGAISTFRDKTEVRKLMQRLDGLVNYADALRERSHEFMNKLHVILGLLHLKSYKQLEDYILKTANNYQEEIGSLLGKIKSPVIAGFLISKINRATDLGHTLILNSESQLPDSGSEDQVATLITTLGNLIENALEALGPEPGGEISVTLHYRHGWLHCEVNDDGPGIAPDKIDHIFDKGVSTKGSERGVGLALVKQQVENLGGSIAVESEPGIFTQFFVQIPWDGE
modifications: phosphorylated by autophosphorylation with ATP; phosphorylation site His349
notes: cytoplasmic part of E. coli DcuS, residues 212-539, autophosphorylated with ATP; source: E. coli BL21(DE3), purified (Ni-NTA agarose), then incubated with 1 mM ATP; not shown: His6, N-terminal, kept
B7: His6-PASc-Kin (DcuS [AS 212-539]) (domain or fragment, E. coli, UniProt P0AEC8 212-539, looked up)
chain: LEPYEISTLFEQRQAMLQSIKEGVVAVDDRGEVTLINDAAQELLNYRKSQDDEKLSTLSHSWSQVVDVSEVLRDGTPRRDEEITIKDRLLLINTVPVRSNGVIIGAISTFRDKTEVRKLMQRLDGLVNYADALRERSHEFMNKLHVILGLLHLKSYKQLEDYILKTANNYQEEIGSLLGKIKSPVIAGFLISKINRATDLGHTLILNSESQLPDSGSEDQVATLITTLGNLIENALEALGPEPGGEISVTLHYRHGWLHCEVNDDGPGIAPDKIDHIFDKGVSTKGSERGVGLALVKQQVENLGGSIAVESEPGIFTQFFVQIPWDGE
notes: cytoplasmic part of E. coli DcuS (Linker, PASC and kinase domains), residues 212-539; unphosphorylated; pET28a derivative; homodimer by SEC (Mr 84 kDa, monomer 40.4 kDa); also called His6-PASc-Kinase; 6His-PASc-Kinase; source: E. coli BL21(DE3), purified (Ni-NTA agarose); not shown: His6, N-terminal, kept

Experiments:
His6-DcuR = molecular target: T1, His6-DcuR (E. coli, UniProt P0AD01 1-239); assay: SEC; mixtures of PASC-Kin and DcuR (phosphate-free or phosphorylated), molar ratios 1:1.44, 1:2, 1:1.4 with PASC-Kin at 40.4 μM (also 1:0.2, 1:5, 1:10 for PASC-Kin-P and DcuR); HiLoad 16/600 Sephadex 200; peak fractions analysed by SDS-PAGE and quantified with ImageJ; conditions: both partners purified
T1 construct: response regulator DcuR of E. coli; unphosphorylated; also called DcuR-6His; source: E. coli BL21(DE3), purified (Ni-NTA agarose)
T1 sequence (looked up): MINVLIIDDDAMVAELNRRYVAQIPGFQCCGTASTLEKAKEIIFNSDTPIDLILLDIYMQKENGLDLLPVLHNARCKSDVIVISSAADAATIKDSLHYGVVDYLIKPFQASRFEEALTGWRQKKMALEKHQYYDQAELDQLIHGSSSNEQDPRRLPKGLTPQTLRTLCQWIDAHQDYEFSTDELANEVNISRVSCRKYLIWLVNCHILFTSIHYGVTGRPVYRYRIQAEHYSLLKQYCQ

[1] = molecular target: the molecule itself; assay: as above
[2] = molecular target: B7; assay: MST; eYFP-L-DcuR at 0.1 μM, His6-PASC-Kin titrated from 10^-1 to 2 x 10^4 nM; Tris/HCl pH 7.7, 10 mM MgCl2, 2 mM DTT; 25°C; Monolith NT.115; 1:1 binding model; Kd refers to monomer concentrations; conditions: both partners purified
[3] = molecular target: B1; assay: as above; conditions: both partners purified
T25-DcuR(D56N) = molecular target: T2, T25-DcuR(D56N) (E. coli, UniProt P0AD01 1-239, D56N); assay: two-hybrid; bacterial two-hybrid BACTH in E. coli BTH101 (ΔcyaA); T25 N-terminally on DcuR, T18 C-terminally on DcuS or PASC-Kin; β-galactosidase activity in Miller units; wild-type pair also with fumarate; conditions: partners not purified
T2 construct: E. coli DcuR, as pMW427 (T25-DcuR) with the phosphorylation site Asp56 changed to Asn; source: bacterial two-hybrid (BACTH) fusion in E. coli BTH101; not shown: T25 domain of Bordetella pertussis adenylate cyclase, N-terminal, kept
T2 sequence (looked up): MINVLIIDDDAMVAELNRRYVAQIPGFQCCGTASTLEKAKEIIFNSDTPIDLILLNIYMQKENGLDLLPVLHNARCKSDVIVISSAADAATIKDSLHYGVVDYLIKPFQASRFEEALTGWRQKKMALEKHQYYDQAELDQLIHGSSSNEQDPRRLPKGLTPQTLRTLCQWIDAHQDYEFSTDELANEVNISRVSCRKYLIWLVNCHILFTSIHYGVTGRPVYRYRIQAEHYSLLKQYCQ

T25-DcuR = molecular target: T3, T25-DcuR (E. coli, UniProt P0AD01 1-239); assay: as above; conditions: partners not purified
T3 construct: response regulator DcuR of E. coli (REC and HTH domains); also called DcuR-fusion; source: bacterial two-hybrid (BACTH) fusion in E. coli BTH101; not shown: T25 domain of Bordetella pertussis adenylate cyclase, N-terminal, kept
T3 sequence (looked up): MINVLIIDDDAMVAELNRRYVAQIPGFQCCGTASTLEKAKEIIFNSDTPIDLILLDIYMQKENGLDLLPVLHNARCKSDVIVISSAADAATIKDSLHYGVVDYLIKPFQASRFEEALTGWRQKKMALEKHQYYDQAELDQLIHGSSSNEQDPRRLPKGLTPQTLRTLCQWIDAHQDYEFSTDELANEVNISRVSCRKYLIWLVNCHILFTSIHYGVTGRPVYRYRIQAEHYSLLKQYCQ

[4] = molecular target: the molecule itself; assay: SEC; each protein alone on HiLoad 16/600 Sephadex 200; His6-PASc-Kinase 45 μM, DcuR 55 μM; 50 mM Tris-HCl, 1 mM DTT, 50 mM KCl, 5 mM MgCl2, pH 7.7, 25°C; Mr by calibration with protein standards

B1
stoichiometry N (His6-DcuR): 0.86 mol DcuR/mol PASC-Kin
binding result [1]: binds

B2: eYFP-L-DcuR (natural protein, E. coli, UniProt P0AD01 1-239, looked up)
chain: MINVLIIDDDAMVAELNRRYVAQIPGFQCCGTASTLEKAKEIIFNSDTPIDLILLDIYMQKENGLDLLPVLHNARCKSDVIVISSAADAATIKDSLHYGVVDYLIKPFQASRFEEALTGWRQKKMALEKHQYYDQAELDQLIHGSSSNEQDPRRLPKGLTPQTLRTLCQWIDAHQDYEFSTDELANEVNISRVSCRKYLIWLVNCHILFTSIHYGVTGRPVYRYRIQAEHYSLLKQYCQ
notes: response regulator DcuR of E. coli, joined genetically to eYFP by a short linker; unphosphorylated; The His6 tag is printed at the N-terminus and at the C-terminus in the same paragraph; also called eYfp-Linker-DcuR; His6-eYfp-Linker-DcuR; source: E. coli BL21(DE3), purified (Ni-NTA agarose)
Kd [2]: 1380 nM
Kd [3]: 22 nM

B3: eYFP-L-DcuR-P (natural protein, E. coli, UniProt P0AD01 1-239, looked up)
chain: MINVLIIDDDAMVAELNRRYVAQIPGFQCCGTASTLEKAKEIIFNSDTPIDLILLDIYMQKENGLDLLPVLHNARCKSDVIVISSAADAATIKDSLHYGVVDYLIKPFQASRFEEALTGWRQKKMALEKHQYYDQAELDQLIHGSSSNEQDPRRLPKGLTPQTLRTLCQWIDAHQDYEFSTDELANEVNISRVSCRKYLIWLVNCHILFTSIHYGVTGRPVYRYRIQAEHYSLLKQYCQ
modifications: phosphorylated with carbamoyl phosphate; phosphorylation site Asp56 of DcuR
notes: response regulator DcuR of E. coli, joined genetically to eYFP by a short linker, phosphorylated with carbamoyl phosphate; also called eYFP-DcuR~P; source: E. coli BL21(DE3), purified (Ni-NTA agarose), then incubated with 50 mM carbamoyl phosphate
Kd [2]: 28 nM

B4: DcuS-T18 (natural protein, E. coli, UniProt P0AEC8 1-543, looked up)
chain: MRHSLPYRMLRKRPMKLSTTVILMVSAVLFSVLLVVHLIYFSQISDMTRDGLANKALAVARTLADSPEIRQGLQKKPQESGIQAIAEAVRKRNDLLFIVVTDMQSLRYSHPEAQRIGQPFKGDDILKALNGEENVAINRGFLAQALRVFTPIYDENHKQIGVVAIGLELSRVTQQINDSRWSIIWSVLFGMLVGLIGTCILVKVLKKILFGLEPYEISTLFEQRQAMLQSIKEGVVAVDDRGEVTLINDAAQELLNYRKSQDDEKLSTLSHSWSQVVDVSEVLRDGTPRRDEEITIKDRLLLINTVPVRSNGVIIGAISTFRDKTEVRKLMQRLDGLVNYADALRERSHEFMNKLHVILGLLHLKSYKQLEDYILKTANNYQEEIGSLLGKIKSPVIAGFLISKINRATDLGHTLILNSESQLPDSGSEDQVATLITTLGNLIENALEALGPEPGGEISVTLHYRHGWLHCEVNDDGPGIAPDKIDHIFDKGVSTKGSERGVGLALVKQQVENLGGSIAVESEPGIFTQFFVQIPWDGERSNR
notes: membrane-integral C4-dicarboxylate sensor kinase DcuS of E. coli, full length; also called full-length DcuS; DcuS-fusion; source: bacterial two-hybrid (BACTH) fusion in E. coli BTH101; not shown: T18 domain of Bordetella pertussis adenylate cyclase, C-terminal, kept
% of wild-type BACTH activity (T25-DcuR(D56N)): 94%

B5: DcuS(H349A)-T18 (natural protein, E. coli, UniProt P0AEC8 1-543, looked up)
chain: MRHSLPYRMLRKRPMKLSTTVILMVSAVLFSVLLVVHLIYFSQISDMTRDGLANKALAVARTLADSPEIRQGLQKKPQESGIQAIAEAVRKRNDLLFIVVTDMQSLRYSHPEAQRIGQPFKGDDILKALNGEENVAINRGFLAQALRVFTPIYDENHKQIGVVAIGLELSRVTQQINDSRWSIIWSVLFGMLVGLIGTCILVKVLKKILFGLEPYEISTLFEQRQAMLQSIKEGVVAVDDRGEVTLINDAAQELLNYRKSQDDEKLSTLSHSWSQVVDVSEVLRDGTPRRDEEITIKDRLLLINTVPVRSNGVIIGAISTFRDKTEVRKLMQRLDGLVNYADALRERSAEFMNKLHVILGLLHLKSYKQLEDYILKTANNYQEEIGSLLGKIKSPVIAGFLISKINRATDLGHTLILNSESQLPDSGSEDQVATLITTLGNLIENALEALGPEPGGEISVTLHYRHGWLHCEVNDDGPGIAPDKIDHIFDKGVSTKGSERGVGLALVKQQVENLGGSIAVESEPGIFTQFFVQIPWDGERSNR
notes: E. coli DcuS, as pMW428 (full-length DcuS-T18) with the phosphorylation site His349 changed to Ala; source: bacterial two-hybrid (BACTH) fusion in E. coli BTH101; not shown: T18 domain of Bordetella pertussis adenylate cyclase, C-terminal, kept
% of wild-type BACTH activity (T25-DcuR): 94%

B6: PASC-Kin(H349A)-T18 (domain or fragment, E. coli, UniProt P0AEC8 211-539, looked up)
chain: GLEPYEISTLFEQRQAMLQSIKEGVVAVDDRGEVTLINDAAQELLNYRKSQDDEKLSTLSHSWSQVVDVSEVLRDGTPRRDEEITIKDRLLLINTVPVRSNGVIIGAISTFRDKTEVRKLMQRLDGLVNYADALRERSAEFMNKLHVILGLLHLKSYKQLEDYILKTANNYQEEIGSLLGKIKSPVIAGFLISKINRATDLGHTLILNSESQLPDSGSEDQVATLITTLGNLIENALEALGPEPGGEISVTLHYRHGWLHCEVNDDGPGIAPDKIDHIFDKGVSTKGSERGVGLALVKQQVENLGGSIAVESEPGIFTQFFVQIPWDGE
notes: cytoplasmic part of E. coli DcuS, as pMW1076 [DcuS(211-539)] with H349A; source: bacterial two-hybrid (BACTH) fusion in E. coli BTH101; not shown: T18 domain of Bordetella pertussis adenylate cyclase, C-terminal, kept
% of wild-type BACTH activity (T25-DcuR): 108%

B7
stoichiometry N [4]: 2
